According to patent publication US20030044911A1:

Key:
Experiment in all cases: cell-based or functional assay
[1] = biological target: N-type calcium channel formed by human brain α1B subunit together with rabbit β3 subunit, expressed in Xenopus oocytes (human; rabbit) (UniProt Q00975)
[2] = biological target: rabbit cardiac α1C subunit, modified cDNA ΔN60 truncated by 60 amino acids at the N-terminal end, expressed in Xenopus oocytes (rabbit) (UniProt P15381)
[3] = biological target: rat brain α1G subunit expressed from cRNA in Xenopus oocytes (rat) (UniProt O54898)
UniProt O54898, sequence (O54898 whole entry): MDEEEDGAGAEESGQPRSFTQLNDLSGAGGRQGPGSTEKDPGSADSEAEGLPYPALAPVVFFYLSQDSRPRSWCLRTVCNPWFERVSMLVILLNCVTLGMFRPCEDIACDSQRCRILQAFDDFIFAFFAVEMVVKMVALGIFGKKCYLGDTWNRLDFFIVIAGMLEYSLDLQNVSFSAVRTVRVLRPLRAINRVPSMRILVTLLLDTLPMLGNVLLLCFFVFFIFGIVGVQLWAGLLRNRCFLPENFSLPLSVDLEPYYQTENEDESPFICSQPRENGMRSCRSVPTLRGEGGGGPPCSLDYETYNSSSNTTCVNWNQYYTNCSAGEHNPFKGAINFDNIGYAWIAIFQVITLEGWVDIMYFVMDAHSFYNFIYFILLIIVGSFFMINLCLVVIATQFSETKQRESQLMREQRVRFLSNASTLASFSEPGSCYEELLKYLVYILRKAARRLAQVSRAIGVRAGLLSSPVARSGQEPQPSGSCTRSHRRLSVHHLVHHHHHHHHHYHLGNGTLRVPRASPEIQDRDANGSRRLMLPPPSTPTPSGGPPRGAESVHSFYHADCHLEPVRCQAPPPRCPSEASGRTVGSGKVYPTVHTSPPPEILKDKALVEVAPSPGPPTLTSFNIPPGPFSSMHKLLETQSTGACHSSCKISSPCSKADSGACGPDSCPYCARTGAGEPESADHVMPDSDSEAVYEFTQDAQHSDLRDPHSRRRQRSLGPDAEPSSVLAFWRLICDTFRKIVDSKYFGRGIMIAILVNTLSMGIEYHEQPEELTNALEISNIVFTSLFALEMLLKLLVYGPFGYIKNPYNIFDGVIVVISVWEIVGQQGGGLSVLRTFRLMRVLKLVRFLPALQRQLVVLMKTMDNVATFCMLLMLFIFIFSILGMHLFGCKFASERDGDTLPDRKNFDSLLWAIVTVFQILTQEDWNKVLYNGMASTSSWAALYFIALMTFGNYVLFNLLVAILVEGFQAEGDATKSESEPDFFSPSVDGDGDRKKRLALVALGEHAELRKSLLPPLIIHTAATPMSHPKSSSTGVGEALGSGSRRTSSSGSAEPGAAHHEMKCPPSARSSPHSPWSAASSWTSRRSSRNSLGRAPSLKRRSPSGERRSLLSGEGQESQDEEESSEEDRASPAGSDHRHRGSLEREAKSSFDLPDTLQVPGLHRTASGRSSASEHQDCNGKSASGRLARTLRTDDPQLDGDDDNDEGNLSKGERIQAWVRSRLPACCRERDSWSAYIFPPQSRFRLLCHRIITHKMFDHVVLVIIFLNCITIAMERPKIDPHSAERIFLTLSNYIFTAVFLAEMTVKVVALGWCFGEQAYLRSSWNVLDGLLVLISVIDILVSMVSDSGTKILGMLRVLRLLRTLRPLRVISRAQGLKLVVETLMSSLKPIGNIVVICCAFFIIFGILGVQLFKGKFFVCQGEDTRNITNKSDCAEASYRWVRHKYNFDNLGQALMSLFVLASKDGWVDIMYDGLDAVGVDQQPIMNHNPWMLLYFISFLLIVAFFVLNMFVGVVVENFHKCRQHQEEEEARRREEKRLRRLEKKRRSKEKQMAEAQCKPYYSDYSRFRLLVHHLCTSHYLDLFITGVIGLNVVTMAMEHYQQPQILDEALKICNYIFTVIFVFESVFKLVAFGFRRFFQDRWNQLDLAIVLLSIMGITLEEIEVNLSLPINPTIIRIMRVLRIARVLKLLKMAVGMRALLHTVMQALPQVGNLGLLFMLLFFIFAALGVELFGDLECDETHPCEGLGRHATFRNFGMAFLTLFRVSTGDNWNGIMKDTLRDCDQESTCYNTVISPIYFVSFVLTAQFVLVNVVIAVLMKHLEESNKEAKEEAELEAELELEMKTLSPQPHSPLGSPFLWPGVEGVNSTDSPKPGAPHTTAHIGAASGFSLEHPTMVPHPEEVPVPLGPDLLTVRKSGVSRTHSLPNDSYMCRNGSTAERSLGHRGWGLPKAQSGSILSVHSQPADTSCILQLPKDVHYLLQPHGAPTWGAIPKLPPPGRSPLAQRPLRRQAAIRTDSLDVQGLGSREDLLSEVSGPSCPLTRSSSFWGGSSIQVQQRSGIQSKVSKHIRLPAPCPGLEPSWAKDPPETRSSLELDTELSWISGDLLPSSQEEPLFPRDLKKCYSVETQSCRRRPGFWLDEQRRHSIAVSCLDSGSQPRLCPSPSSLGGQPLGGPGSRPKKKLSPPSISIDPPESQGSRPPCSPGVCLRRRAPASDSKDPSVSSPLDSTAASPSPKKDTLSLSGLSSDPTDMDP

UniProt Q00975, sequence (Q00975 whole entry, chain 1 of 2, the tested form may be a part): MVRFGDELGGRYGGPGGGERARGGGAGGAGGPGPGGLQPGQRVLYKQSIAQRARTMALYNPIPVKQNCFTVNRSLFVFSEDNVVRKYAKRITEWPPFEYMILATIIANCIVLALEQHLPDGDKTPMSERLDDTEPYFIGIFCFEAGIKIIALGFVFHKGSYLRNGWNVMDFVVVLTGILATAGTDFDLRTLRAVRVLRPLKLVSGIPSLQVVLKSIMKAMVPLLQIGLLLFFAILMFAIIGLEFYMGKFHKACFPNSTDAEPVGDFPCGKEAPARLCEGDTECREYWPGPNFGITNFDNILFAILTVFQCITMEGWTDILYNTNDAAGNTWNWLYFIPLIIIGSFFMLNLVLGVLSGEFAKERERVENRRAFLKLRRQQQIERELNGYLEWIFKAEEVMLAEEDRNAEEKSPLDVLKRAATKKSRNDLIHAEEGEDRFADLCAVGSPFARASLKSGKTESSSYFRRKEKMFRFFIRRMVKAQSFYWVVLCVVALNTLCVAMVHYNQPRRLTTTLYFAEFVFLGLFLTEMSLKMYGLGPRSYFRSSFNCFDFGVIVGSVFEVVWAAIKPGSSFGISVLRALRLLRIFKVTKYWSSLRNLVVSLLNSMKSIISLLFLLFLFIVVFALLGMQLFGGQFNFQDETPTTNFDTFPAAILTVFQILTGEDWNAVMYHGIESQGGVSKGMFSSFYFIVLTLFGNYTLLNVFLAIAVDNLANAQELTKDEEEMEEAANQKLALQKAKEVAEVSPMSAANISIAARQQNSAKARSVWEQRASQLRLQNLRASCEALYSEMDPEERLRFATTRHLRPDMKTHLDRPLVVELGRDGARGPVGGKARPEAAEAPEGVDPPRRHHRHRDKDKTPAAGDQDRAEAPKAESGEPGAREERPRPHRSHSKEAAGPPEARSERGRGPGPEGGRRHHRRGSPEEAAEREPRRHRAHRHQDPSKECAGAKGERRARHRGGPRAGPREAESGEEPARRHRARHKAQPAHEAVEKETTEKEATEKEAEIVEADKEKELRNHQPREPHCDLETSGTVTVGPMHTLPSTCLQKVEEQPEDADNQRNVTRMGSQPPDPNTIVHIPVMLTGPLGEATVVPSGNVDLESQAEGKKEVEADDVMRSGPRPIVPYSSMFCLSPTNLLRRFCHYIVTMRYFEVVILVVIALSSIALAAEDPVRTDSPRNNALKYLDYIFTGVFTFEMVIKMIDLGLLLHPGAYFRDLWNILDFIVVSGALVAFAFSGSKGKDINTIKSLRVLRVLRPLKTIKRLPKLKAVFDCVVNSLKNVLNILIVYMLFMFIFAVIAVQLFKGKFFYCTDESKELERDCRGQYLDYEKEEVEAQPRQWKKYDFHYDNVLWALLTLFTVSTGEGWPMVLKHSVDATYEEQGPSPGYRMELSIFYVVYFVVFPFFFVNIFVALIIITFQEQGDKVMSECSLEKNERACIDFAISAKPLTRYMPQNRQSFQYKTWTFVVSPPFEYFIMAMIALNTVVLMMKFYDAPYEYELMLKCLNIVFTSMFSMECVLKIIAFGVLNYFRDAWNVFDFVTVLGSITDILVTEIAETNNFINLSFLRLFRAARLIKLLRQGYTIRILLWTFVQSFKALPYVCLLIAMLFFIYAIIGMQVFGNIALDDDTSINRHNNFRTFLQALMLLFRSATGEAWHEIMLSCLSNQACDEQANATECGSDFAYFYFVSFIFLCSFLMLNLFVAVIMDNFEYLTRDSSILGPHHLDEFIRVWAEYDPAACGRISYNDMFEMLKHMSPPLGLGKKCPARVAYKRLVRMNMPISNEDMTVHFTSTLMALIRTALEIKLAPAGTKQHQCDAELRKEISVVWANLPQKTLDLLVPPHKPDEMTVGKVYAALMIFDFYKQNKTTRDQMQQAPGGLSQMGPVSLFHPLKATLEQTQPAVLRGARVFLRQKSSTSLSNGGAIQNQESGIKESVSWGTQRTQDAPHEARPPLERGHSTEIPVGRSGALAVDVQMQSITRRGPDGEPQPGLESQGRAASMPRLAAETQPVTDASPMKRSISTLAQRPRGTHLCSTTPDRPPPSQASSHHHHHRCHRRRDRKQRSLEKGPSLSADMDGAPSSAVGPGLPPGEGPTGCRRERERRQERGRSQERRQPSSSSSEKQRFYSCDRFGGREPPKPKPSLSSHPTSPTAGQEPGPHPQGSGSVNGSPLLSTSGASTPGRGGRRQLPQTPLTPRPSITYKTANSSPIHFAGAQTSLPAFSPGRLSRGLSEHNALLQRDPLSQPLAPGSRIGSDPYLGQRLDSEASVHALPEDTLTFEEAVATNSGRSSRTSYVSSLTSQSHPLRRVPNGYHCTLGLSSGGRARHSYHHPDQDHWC
UniProt Q00975, sequence (P54286 whole entry, chain 2 of 2, further chain, the tested form may be a part): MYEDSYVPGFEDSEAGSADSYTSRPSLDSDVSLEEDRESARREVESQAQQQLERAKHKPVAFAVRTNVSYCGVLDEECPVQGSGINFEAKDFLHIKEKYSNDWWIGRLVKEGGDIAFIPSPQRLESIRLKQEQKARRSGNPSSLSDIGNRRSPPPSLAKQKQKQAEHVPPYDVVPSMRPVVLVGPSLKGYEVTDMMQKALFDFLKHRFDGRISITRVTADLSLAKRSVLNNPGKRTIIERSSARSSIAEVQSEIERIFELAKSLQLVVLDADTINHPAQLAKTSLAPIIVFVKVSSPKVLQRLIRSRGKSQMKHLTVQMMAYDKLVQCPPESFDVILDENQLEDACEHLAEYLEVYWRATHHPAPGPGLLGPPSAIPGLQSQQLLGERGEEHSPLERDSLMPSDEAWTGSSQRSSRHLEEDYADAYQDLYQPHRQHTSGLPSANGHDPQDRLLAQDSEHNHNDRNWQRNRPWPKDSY

α2δ-2 subunit expressed from cRNA in Xenopus oocytes (from UniProt Q9NY47 19-1150)
current remaining at the end of a 50 ms test pulse to +20 mV, percent of peak current (inactivation) (% of peak current) [1]: 59 | peak barium current (N-type), two-electrode voltage clamp in Xenopus oocytes [1]: 7.6 µA | L-type peak current amplitude at +30 mV, α1C/α2δ-2 against α1C alone, Xenopus oocytes [2]: 201% | T-type current amplitude, α1G/α2δ-2 against α1G alone, Xenopus oocytes [3]: 176%

rabbit skeletal muscle α2δ-1 subunit expressed from cRNA in Xenopus oocytes (from UniProt P13806 27-1106)
current remaining at the end of a 50 ms test pulse to +20 mV, percent of peak current (inactivation) (% of peak current) [1]: 33 | fold increase of N-type current magnitude [1]: 9 fold | peak barium current (N-type), two-electrode voltage clamp in Xenopus oocytes [1]: 9.1 µA
